Consider one molecule from article PMC3596311, “PTB-Associated Splicing Factor (PSF) Is a PPARγ-Binding Protein and Growth Regulator of Colon Cancer Cells” (PLoS ONE, 2013).

This test has as its target T1, PSF, full-length, fused to the GAL4 DNA-binding domain (pFN11A-PSF) (human, UniProt P23246 1-707).
T1 construct: PTB-associated splicing factor (PSF), human, full-length cDNA (GenBank BC051192), 707 amino acids; CheckMate/Flexi Vector Mammalian Two-Hybrid System (Promega), vector pFN11A; also called Gal4-PSF; source: CV-1 cells, transiently transfected, mammalian two-hybrid fusion
T1 sequence (looked up): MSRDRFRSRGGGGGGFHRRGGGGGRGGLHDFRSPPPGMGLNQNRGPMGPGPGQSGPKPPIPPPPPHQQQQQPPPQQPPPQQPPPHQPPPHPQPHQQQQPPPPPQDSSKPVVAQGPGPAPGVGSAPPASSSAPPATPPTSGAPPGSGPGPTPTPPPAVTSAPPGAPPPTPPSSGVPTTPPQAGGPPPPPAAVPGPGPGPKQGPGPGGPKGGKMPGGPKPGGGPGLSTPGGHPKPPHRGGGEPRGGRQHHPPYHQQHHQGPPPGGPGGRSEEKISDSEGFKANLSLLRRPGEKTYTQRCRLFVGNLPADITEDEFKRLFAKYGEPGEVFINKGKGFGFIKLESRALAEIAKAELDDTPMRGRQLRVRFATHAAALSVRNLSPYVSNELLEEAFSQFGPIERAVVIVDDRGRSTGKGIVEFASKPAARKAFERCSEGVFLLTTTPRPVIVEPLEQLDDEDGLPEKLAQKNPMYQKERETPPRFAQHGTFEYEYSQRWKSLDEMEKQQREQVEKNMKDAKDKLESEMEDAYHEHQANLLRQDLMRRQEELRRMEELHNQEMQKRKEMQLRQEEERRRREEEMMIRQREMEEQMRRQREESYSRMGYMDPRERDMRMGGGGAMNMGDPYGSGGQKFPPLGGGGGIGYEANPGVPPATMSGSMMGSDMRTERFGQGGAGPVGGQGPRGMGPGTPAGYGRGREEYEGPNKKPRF
Description: two-hybrid; mammalian two-hybrid in CV-1 cells: GAL4 DNA-binding domain-PSF (pFN11A) and VP16-PPARγ1 (pFN10A), GAL4-UAS luciferase reporter; also with rosiglitazone 0.1–10 µM, which did not affect the interaction. The following applies: partners not purified.

B1: PPARγ1, full-length, fused to the VP16 activation domain (pFN10A-PPARγ1) (natural protein, UniProt P37231-2 1-477, looked up)
chain: MTMVDTEMPFWPTNFGISSVDLSVMEDHSHSFDIKPFTTVDFSSISTPHYEDIPFTRTDPVVADYKYDLKLQEYQSAIKVEPASPPYYSEKTQLYNKPHEEPSNSLMAIECRVCGDKASGFHYGVHACEGCKGFFRRTIRLKLIYDRCDLNCRIHKKSRNKCQYCRFQKCLAVGMSHNAIRFGRMPQAEKEKLLAEISSDIDQLNPESADLRALAKHLYDSYIKSFPLTKAKARAILTGKTTDKSPFVIYDMNSLMMGEDKIKFKHITPLQEQSKEVAIRIFQGCQFRSVEAVQEITEYAKSIPGFVNLDLNDQVTLLKYGVHEIIYTMLASLMNKDGVLISEGQGFMTREFLKSLRKPFGDFMEPKFEFAVKFNALELDDSDLAIFIAVIILSGDRPGLLNVKPIEDIQDNLLQALELQLKLNHPESSQLFAKLLQKMTDLRQIVTEHVQLLQVIKKTETDMSLHPLLQEIYKDLY
notes: CheckMate/Flexi Vector Mammalian Two-Hybrid System (Promega), vector pFN10A; also called VP16-PPARγ; VP-16-PPARγ1; source: CV-1 cells, transiently transfected, mammalian two-hybrid fusion
Take B1: the “fold induction of GAL4 promoter-driven luciferase over empty vectors” value was 3 fold.
